Where no end group is shown, it is not given here. Side-chain parts run from the residue outwards. [ ]: non-standard residue; d: D form. The star is where a group is joined. Desaminohistidyl = O=C(CCc1c[nH]cn1)*; PLA = phenyl lactic acid; Aib = CC(C)(N)C(=O)O
Assays:
[1] = biological target: T1, GLP-1 receptor (Homo sapiens, UniProt P43220); experiment: Luciferase-based reporter gene assay for cAMP detection, GLP-1 receptor; format: cell-based; design: expressed in transfected cells; host or cells: HEK293; conditions: for Potency compared with native GLP-1: luciferase assay, in vitro
Target sequence in this assay (P43220 24-463, species assumed): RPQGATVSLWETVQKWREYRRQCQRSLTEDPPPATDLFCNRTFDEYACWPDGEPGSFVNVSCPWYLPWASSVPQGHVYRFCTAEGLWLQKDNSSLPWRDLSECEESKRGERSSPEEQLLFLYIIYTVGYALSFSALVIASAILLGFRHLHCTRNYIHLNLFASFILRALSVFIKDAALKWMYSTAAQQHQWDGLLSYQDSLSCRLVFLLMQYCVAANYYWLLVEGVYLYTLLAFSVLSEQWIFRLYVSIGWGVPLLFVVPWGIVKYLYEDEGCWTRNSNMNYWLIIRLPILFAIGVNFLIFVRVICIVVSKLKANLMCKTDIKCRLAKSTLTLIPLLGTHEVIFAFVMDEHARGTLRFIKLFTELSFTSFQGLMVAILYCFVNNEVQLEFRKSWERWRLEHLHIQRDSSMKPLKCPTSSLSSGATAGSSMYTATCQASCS

[2] = biological target: T1, GLP-1 receptor; experiment: cell-based or functional assay
Target sequence in this assay (P43220 24-463 limits assumed): as the sequence (P43220 24-463, species assumed) above

[3] = biological target: glucagon receptor (UniProt P47871); experiment: cell-based or functional assay
glucagon receptor, sequence (P47871 26-477 limits assumed): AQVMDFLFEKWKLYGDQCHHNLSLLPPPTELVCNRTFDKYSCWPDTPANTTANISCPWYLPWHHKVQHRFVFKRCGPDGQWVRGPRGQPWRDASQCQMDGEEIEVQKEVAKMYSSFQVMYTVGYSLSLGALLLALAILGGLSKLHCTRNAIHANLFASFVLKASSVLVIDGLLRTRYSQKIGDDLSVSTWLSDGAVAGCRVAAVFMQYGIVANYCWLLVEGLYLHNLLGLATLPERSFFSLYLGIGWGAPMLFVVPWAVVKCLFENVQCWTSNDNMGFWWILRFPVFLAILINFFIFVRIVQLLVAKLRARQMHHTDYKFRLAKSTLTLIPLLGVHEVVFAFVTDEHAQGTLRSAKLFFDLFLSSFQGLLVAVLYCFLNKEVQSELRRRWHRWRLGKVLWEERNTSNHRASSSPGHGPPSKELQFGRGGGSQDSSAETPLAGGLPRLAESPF

[4] = biological target: glucagon receptor (UniProt P47871); experiment: cell-based or functional assay; remark: listed apart in the source
[5] = tested on: diabetes-induced obesity (DIO) mice; experiment: Blood glucose after glucose injection in DIO mice; format: in vivo; conditions: for blood glucose after glucose injection compared with corresponding non-prodrug form: 2 nmol/kg intraperitoneally 15 min before […] glucose, FIGS. 12, 13; for blood glucose concentrations compared with vehicle control: 15 or 70 nmol/kg intraperitoneally 60 min before […] glucose, FIG. 15
Description: Six groups of diabetes-induced obesity (DIO) mice (eight mice per group) having an initial average body weight of 49.5 g were intraperitoneally injected with 2 nmol/kg of a PBS vehicle control or one of Peptides A-E described below:
(§1) Fifteen minutes after injection with one of the compounds or with vehicle control (at time point 0), a 25% (w/v) glucose saline solution was injected at a dose of 1.5 g per kg of body weight. Blood glucose concentrations of the mice were measured at the time of injection of the compound or vehicle control, at the time of glucose injection, and at 15, 30, 60, and 120 minutes after glucose injection.
Blood glucose levels of the mice were measured as described in Example 5.
(§2) Nine groups of diabetes-induced obesity (DIO) mice (8 mice per group) having an initial average body weight of 56 g were intraperitoneally injected once and followed for one week with 15 or 70 nmol/kg of Peptides Y, Z, F-Peg, and G-Peg described below or PBS vehicle control.
as §1, with “Sixty” for “Fifteen”, “peptides” for “compounds”, “peptide” for “compound”, “control (at time point −60),” for “control,”, “injection (at time point 0),” for “injection,”

[6] = tested on: diabetes-induced obesity (DIO) mice; experiment: Body weight and food intake of DIO mice over one week; format: in vivo; conditions: single injection 15 or 70 nmol/kg; for total efficacy as measured over a week study: prodrug versus non-prodrug; for total food intake: FIG. 17
Description: as §2
The body weight of each mouse of each group was measured on 1, 3, 5, and 7 days after injection with the vehicle control or peptide. Total change in body weight was calculated by substracting the average body weight of a group at the time of injection with vehicle or peptide from the average body weight of the group seven days after injection. Food intake by each group of mice was measured during the course of the week as well. Total food intake was measured seven days after injection with vehicle control or peptide. […] The Ser11 substitution or the des-amino His7 reduces total efficacy.

[7] = biological target: GLP-1 receptor (UniProt P43220 24-463, limits assumed); experiment: cell-based or functional assay

“F^7,GLP(8-37): aa 7-37 of GLP-1 with the His at position 7 replaced with Phe (FAEGTFTSDVSSYLEGQAAKEFIAWLVKGRG; Glucagon-like peptide 1(7-37); UniProt P01275 98-128, looked up, variant H7F)” was tested, and the Agonist character [1] was “full agonist” and the “potency of native GLP-1” value ([1]; percent of the potency of native GLP / GLP-1) was 10%.

Work on G^5V^6-O-F^7,GLP(8-36)CEX (peptide) yielded a % potency with respect to parent; before incubation [2] of 10.9%, a % potency with respect to parent; prodrug incubated in PBS for 24 hrs before the assay [2] of 46% and a % potency with respect to parent; prodrug incubated in PBS for 168 hrs before the assay [2] of 95.8%.

In the case of “Glucagon (6-CEX) analog E9, E16K20(lactam) (peptide)”, the GLP-1 EC50 [2] is reported as 36 nM, the Glu IC50 [3] is reported as 42 nM and the Glucagon IC50 [4] is reported as 42 nM.

Work on “Glucagon (6-CEX) analog E9, K12, E16 (peptide)” yielded a Glu IC50 [3] of 762 nM and a Glucagon IC50 [4] of 762 nM.

For “Glucagon (6-CEX) analog E9, K12E16(lactam) (peptide)”, the GLP-1 EC50 [2] was 63 nM, the Glu IC50 [3] was 2010 nM and the Glucagon IC50 [4] was 2010 nM.

For “Glucagon (6-CEX) analog [PLA6, E9, E16K20(Lactam)] (peptide)”, the Glucagon IC50 [4] was 20 nM.

“Glucagon (6-CEX) analog [PLA6, E9, K12E16(Lactam) (peptide)” gave a GLP-1 EC50 [2] of 6 nM, a Glu IC50 [3] of 72 nM and a Glucagon IC50 [4] of 72 nM.

For “HAEGTFTSDVSSYLEGQAAKEFIAWLVKGRGKRNRNNIA [GLP-oxyntomodulin, GLP-oxyntomodulin chimeric peptide]”, the “Potency compared with native GLP-1” value [1] was “at least as potent as the native GLP-1 peptide”.

In the case of “HO-FAEGTFTSDVSSYLEGQAAKEFIAWLVKGXPSSGAPPPS [HO—F^7,GLP(8-36)-CEX]”, the “% potency with respect to parent” value ([1]; Table 7, before incubation (0 hrs), parent drug as such) is reported as 100% (parent drug) and the “Potency compared with native GLP-1” value [1] is reported as “at least as potent as the native GLP-1”.

For HO-F^5F^6-O-F^7,GLP(8-36)-CEX (peptide), the % potency with respect to parent; before incubation [2] was 3.7% and the % potency with respect to parent; prodrug incubated in PBS for 24 hrs before the assay [2] was 17.2%.

In the case of “H^7AEGTFTSDVSSYLEGQAAKEFIAWLVKGXPSSGAPPPS-amide [GLP(7-36)-CEX amide]”, the “Potency compared with native GLP-1” value [1] is reported as “approximately ten times more potent in vitro than the native GLP-1 sequence”.

For “Peptide A: prodrug of Peptide B, dipeptide d-Phe-dPhe attached via the O-terminus ({dF-dF-PLA}-[Aib]EGTFTSDVSSYLEEQAAKEFIAWLVKGRPSSGAPPPS-NH2; also: PLA bonded to D-Phe via an ester bond)”, the “blood glucose after glucose injection compared with corresponding non-prodrug form” value [5] was “higher than the blood glucose levels of mice injected with the corresponding non-prodrug forms”.

“Peptide C: prodrug of Peptide B, dipeptide d-Phe-d-Val attached via the O-terminus ({dF-dV-PLA}-[Aib]EGTFTSDVSSYLEEQAAKEFIAWLVKGRPSSGAPPPS-NH2; also: PLA bonded to D-Val via an ester bond)” was tested, and the “blood glucose after glucose injection compared with corresponding non-prodrug form” value [5] was “higher than the blood glucose levels of mice injected with the corresponding non-prodrug forms”.

For “Peptide E: prodrug of Peptide D, d-Phe-d-Val ester-linked to Ser at position 11 (H[Aib]EGS([dV-dF])FTSDVSSYLEEQAAKEFIAWLVKGRPSSGAPPPS-NH2; N-terminus assumed; SMILES CC[C@H](C)[C@H](NC(=O)[C@H](Cc1ccccc1)NC(=O)[C@H](CCC(=O)O)NC(=O)[C@H](CCCCN)NC(=O)[C@H](C)NC(=O)[C@H](C)NC(=O)[C@H](CCC(N)=O)NC(=O)[C@H](CCC(=O)O)NC(=O)[C@H](CCC(=O)O)NC(=O)[C@H](CC(C)C)NC(=O)[C@H](Cc1ccc(O)cc1)NC(=O)[C@H](CO)NC(=O)[C@H](CO)NC(=O)[C@@H](NC(=O)[C@H](CC(=O)O)NC(=O)[C@H](CO)NC(=O)[C@@H](NC(=O)[C@H](Cc1ccccc1)NC(=O)[C@H](COC(=O)[C@H](NC(=O)[C@H](N)Cc1ccccc1)C(C)C)NC(=O)CNC(=O)[C@H](CCC(=O)O)NC(=O)C(C)(C)NC(=O)[C@@H](N)Cc1c[nH]cn1)[C@@H](C)O)C(C)C)C(=O)N[C@@H](C)C(=O)N[C@@H](Cc1c[nH]c2ccccc12)C(=O)N[C@@H](CC(C)C)C(=O)N[C@H](C(=O)N[C@@H](CCCCN)C(=O)NCC(=O)N[C@@H](CCCNC(=N)N)C(=O)N1CCC[C@H]1C(=O)N[C@@H](CO)C(=O)N[C@@H](CO)C(=O)NCC(=O)N[C@@H](C)C(=O)N1CCC[C@H]1C(=O)N1CCC[C@H]1C(=O)N1CCC[C@H]1C(=O)N[C@@H](CO)C(N)=O)C(C)C)”, the “blood glucose after glucose injection compared with corresponding non-prodrug form” value [5] was “higher than the blood glucose levels of mice injected with the corresponding non-prodrug forms”.

With “Peptide F-Peg: Peptide F analog with Cys at 30 covalently linked to a 40 kDa PEG ([Desaminohistidyl]SEGTFTSDVSSYLEEQAAKEFIC(PEG 40 kDa)WLVKGRPSSGAPPPS-NH2)” the “blood glucose concentrations compared with vehicle control” value [5] was “less as compared to the blood glucose levels of mice injected with vehicle control”, the “total efficacy as measured over a week study” value [6] was “comparable” and the total food intake ([6]; seven days) was “decreased”.

For “Peptide G-Peg: pegylated prodrug, d-Phe-d-Val ester-linked to the Ser at position 8 ([Desaminohistidyl]S([dV-dF])EGTFTSDVSSYLEEQAAKEFIC(PEG 40 kDa)WLVKGRPSSGAPPPS-NH2)”, the “blood glucose concentrations compared with vehicle control” value [5] was “less as compared to the blood glucose levels of mice injected with vehicle control”, the “total efficacy as measured over a week study” value [6] was “comparable” and the total food intake ([6]; seven days) was “decreased”.

“Peptide G: prodrug of Peptide F, d-Phe-dVal ester-linked to the Ser at position 2 of Peptide F ([Desaminohistidyl]S([dV-dF])EGTFTSDVSSYLEEQAAKEFIAWLVKGRPSSGAPPPS-NH2; SMILES CC[C@H](C)[C@H](NC(=O)[C@H](Cc1ccccc1)NC(=O)[C@H](CCC(=O)O)NC(=O)[C@H](CCCCN)NC(=O)[C@H](C)NC(=O)[C@H](C)NC(=O)[C@H](CCC(N)=O)NC(=O)[C@H](CCC(=O)O)NC(=O)[C@H](CCC(=O)O)NC(=O)[C@H](CC(C)C)NC(=O)[C@H](Cc1ccc(O)cc1)NC(=O)[C@H](CO)NC(=O)[C@H](CO)NC(=O)[C@@H](NC(=O)[C@H](CC(=O)O)NC(=O)[C@H](CO)NC(=O)[C@@H](NC(=O)[C@H](Cc1ccccc1)NC(=O)[C@@H](NC(=O)CNC(=O)[C@H](CCC(=O)O)NC(=O)[C@H](COC(=O)[C@H](NC(=O)[C@H](N)Cc1ccccc1)C(C)C)NC(=O)CCc1c[nH]cn1)[C@@H](C)O)[C@@H](C)O)C(C)C)C(=O)N[C@@H](C)C(=O)N[C@@H](Cc1c[nH]c2ccccc12)C(=O)N[C@@H](CC(C)C)C(=O)N[C@H](C(=O)N[C@@H](CCCCN)C(=O)NCC(=O)N[C@@H](CCCNC(=N)N)C(=O)N1CCC[C@H]1C(=O)N[C@@H](CO)C(=O)N[C@@H](CO)C(=O)NCC(=O)N[C@@H](C)C(=O)N1CCC[C@H]1C(=O)N1CCC[C@H]1C(=O)N1CCC[C@H]1C(=O)N[C@@H](CO)C(N)=O)C(C)C)” was tested, and the “blood glucose after glucose injection compared with corresponding non-prodrug form” value [5] was “higher than the blood glucose levels of mice injected with its corresponding non-prodrug form”.

“Peptide Y: GLP-1 with AIB at 8, Glu at 22, Cys at 30 linked to 40 kDa PEG, Exendin 4 extension (H[Aib]EGTFTSDVSSYLEEQAAKEFIC(PEG 40 kDa)WLVKGRPSSGAPPPS-NH2)” was tested, and the “blood glucose concentrations compared with vehicle control” value [5] was “less as compared to the blood glucose levels of mice injected with vehicle control”, the total food intake ([6]; seven days) was “decreased” and the “potency in decreasing appetite and decreasing body weight” value ([6]; seven days, FIGS. 16, 17) was “most potent of the four peptides”.

“Peptide Z: pegylated (40 kDa) GLP-1-based prodrug, d-Phe-d-Val ester-linked to Ser at position 11 (H[Aib]EGS([dV-dF])FTSDVSSYLEEQAAKEFIC(PEG 40 kDa)WLVKGRPSSGAPPPS-NH2)” was tested, and the “blood glucose concentrations compared with vehicle control” value [5] was “less as compared to the blood glucose levels of mice injected with vehicle control” and the total food intake ([6]; seven days) was “decreased”.

B1: ANK2 (Bayer peptide) (peptide)
peptide: HSQGTFTSDYARYLDARRAREFIKWLVRGRG
For B1, the “GLP-1 EC50” value [7] was 0.28 nM.
